Results reported in the Human Domainome abundance scans (Beltran et al. 2025).

B1: Segment polarity protein dishevelled homolog DVL-3, residues 2 to 81; numbered along this chain, Q92997 (parent)
chain: GETKIIYHLDGQETPYLVKLPLPAERVTLADFKGVLQRPSYKFFFKSMDDDFGVVKEEISDDNAKLPCFNGRVVSWLVSA

Variants of: B1
Assay: abundance fitness (aPCA) (normalised: wild type 0, dead -1); higher = more abundant; growth selection in yeast, the domain comes from the species named
Details: Homo sapiens

Abundance fitness, by site and new letter:
F44: P -0.685, C -0.689, L -0.351, N -0.653, V -0.756, K -0.818, I -0.624, G -0.754, W -0.244, A -0.614, R -0.753, Q -0.745, H -0.807, E -0.683, D -0.749, Y -0.015
F43: K -0.644, I -0.611, A -0.552, N -0.565, L -0.693, Q -0.909, W -0.58, G -0.753, P -1.12, H -0.799, D -0.64, V -0.658, C -0.391, M -0.291, T -0.695
F45: H -0.864, L -0.775, A -0.533, E -0.379, M -0.868, I -0.969, C -0.569, D -0.775, K -0.934
K42: H -0.043, W -0.783, V -0.841, Q -0.044, M -0.659, C -0.624, E -0.636, R 0.158, L -0.86, S -0.716, F 0.052, T -0.356, N -0.421, A -0.602, Y -0.957, D -0.953, P -0.763
L36: M -0.465, A -0.785, S -0.629, Q -0.668, H -0.988, E -0.728, C -0.563, G -0.993, R -0.528, F 0.097, V -0.187, D -0.37, N -0.522, K -0.725, T -0.824, P -0.244
S40: E 0.003, L -0.258, D 0.282, V 0.134, F -0.157, P -0.261, Y 0.121, N 0.167, A -0.024, Q 0.004, K -0.091, G 0.116, W -0.1, R -0.254, M 0.098, C 0.045
P39: H 0.073, Y -0.494, Q 0.11, V -0.106, K 0.194, N 0.061, R -0.037, I -0.066, G 0.062, W -0.466, T 0.062, D 0.357, A -0.14, C -0.306, S 0.051, E 0, M 0.006
V35: L -0.164, T -0.167, S -0.257, M -0.25, N -0.375, P -0.869, Y -0.212, Q -0.218, K -0.365
R38: S 0.159, V -0.024, P -0.341, G -0.076, Y -0.188, L -0.114, W -0.099, N 0.255, Q -0.069, A 0.009, C 0.139, K 0.147, F -0.142, M 0.032, D 0.284, E 0.13, H 0.001, T 0.187, I -0.181
Y41: E -0.486, H -0.304, D -0.673, W -0.331, G -0.496, L -0.624, R -0.741, T -0.511, A -0.431, K -0.787, N -0.727, V -0.388, C -0.227, S -0.72, P -0.538, Q -0.403
Q37: W -0.483, Y -0.1, N 0.122, K 0.165, G 0.048, D 0.225, P 0.092, H -0.073, M -0.048, F -0.433, A -0.1, T -0.067, V -0.124, E 0.048, I -0.179, C -0.078, L -0.154
